Source: US12269859B2, “Synthetic immune receptors and methods of use thereof” (Angeles Therapeutics, Inc., priority 2016, dated 2025)

B1: 060816-H05 (protein)
chain: MALPVTALLLPLALLLHAARPDEIVLTQSPATLSLSPGERATLSCSASSSVSYMHWYQQKPGQAPRLLIYDTSKLASGIPARFSGSGSGTDFTLTISSLEPEDVAVYYCFQGSVYPFTFGQGTKLEIKRGGGGSGGGGSGGGGSQVQLQESGPGLVKPSQTLSLTCTVSGGSISTSGMGVGWIRQHPGKGLEWIGHIWWDDDKRYNPALKSRVTISVDTSKNQFSLKLSSVTAADTAVYYCARMELWSYYFDYWGQGTLVTVSSTREQKLISEEDGSGTPFPSLAPPIMLLVDGKQQMVVVCLVLDVAPPGLDSPIWFSAGNGSALDAFTYGPSPATDGTWTNLAHLSLPSEELASWEPLVCHTGPGAEGHSRSTQPMHLSGEASTARTCPQEPLRGTPGGALWLGVLRLLLFKLLLFDLLLTCSCLCDPAGPLPSPATTTRLRALGSHRLHPATETGGREATSSPRPQPRDRRWGDTPPGRKPGSPVRAKRSGSGVKQTLNFDLLKLAGDVESNPGPSRGHMTEYKPTVRLATRDDVPRAVRTLAAAFADYPATRHTVDPDRHIERVTELQELFLTRVGLDIGKVWVADDGAAVAVWTTPESVEAGAVFAEIGPRMAELSGSRLAAQQQMEGLLAPHRPKEPAWFLATVGVSPDHQGKGLGSAVVLPGVEAAERAGVPAFLETSAPRNLPFYERLGFTVTADVEVPEGPRTWCMTRKPGA
modifications: Synthetic Immune Receptor (SIR)
B2: 092515-Y08 (protein)
chain: MALPVTALLLPLALLLHAARPDEIVLTQSPATLSLSPGERATLSCSASSSVSYMHWYQQKPGQAPRLLIYDTSKLASGIPARFSGSGSGTDFTLTISSLEPEDVAVYYCFQGSVYPFTFGQGTKLEIKRGGGGSGGGGSGGGGSQVQLQESGPGLVKPSQTLSLTCTVSGGSISTSGMGVGWIRQHPGKGLEWIGHIWWDDDKRYNPALKSRVTISVDTSKNQFSLKLSSVTAADTAVYYCARMELWSYYFDYWGQGTLVTVSSLESWKDASGWSCTDPQPLKEQPALNDSRYCLSSRLRVSATFWQNPRNHFRCQVQFYGLSENDEWTQDRAKPVTQIVSAEAWGRADCGFTSESYQQGVLSATILYEILLGKATLYAVLVSALVLMAMVKRKDSRGRAKRSGSGATNFSLLKQAGDVEENPGPTSMALPVTALLLPLALLLHAARPDIQMTQTTSSLSASLGDRVTISCRASQDISKYLNWYQQKPDGTVKLLIYHTSRLHSGVPSRFSGSGSGTDYSLTISNLEQEDIATYFCQQGNTLPYTFGGGTKLEITTREQKLISEEDLSSCDVKLVEKSFETDTNLNFQNLSVIGFRILLLKVAGFNLLMTLRLWSSSSRAKRSGSGVKQTLNFDLLKLAGDVESNPGPSRGHMTEYKPTVRLATRDDVPRAVRTLAAAFADYPATRHTVDPDRHIERVTELQELFLTRVGLDIGKVWVADDGAAVAVWTTPESVEAGAVFAEIGPRMAELSGSRLAAQQQMEGLLAPHRPKEPAWFLATVGVSPDHQGKGLGSAVVLPGVEAAERAGVPAFLETSAPRNLPFYERLGFTVTADVEVPEGPRTWCMTRKPGA
modifications: Synthetic Immune Receptor (SIR)

Test system: target antigen-expressing cell line
Assay: Jurkat NFAT-GFP assay, coculture with target cell lines expressing the respective target antigen (summary Table 10A)
Assay type: cell-based, human
Set-up: key: The signs +/−, +, 2+ etc. after the name of the cell lines indicate the relative degree of positivity on the Jurkat-NFAT-GFP assay as measured by the % GFP positive cells; +: relative degree of positivity on the Jurkat-NFAT-GFP assay as measured by the % GFP positive cells; 2+: relative degree of positivity on the Jurkat-NFAT-GFP assay as measured by the % GFP positive cells
Conditions: relative % GFP positive cells; for NFAT-GFP ASSAY Positive Cell lines: RAJI: SIR-expressing Jurkat-NFAT-GFP cells cocultured with RAJI
Method in brief: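 Read-out: % GFP+ cells by FACS. SIR-transduced, puromycin-selected Jurkat NFAT-GFP (IL-2 promoter reporter) cocultured ~4–18 h with target line, E:T ~1:2; parental cells as control; graded +/−, +, 2+ relative to parental.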

Row | Molecule | NFAT-GFP ASSAY Positive Cell lines: RAJI | NFAT-GFP ASSAY Positive Cell lines: NALM6 (SIR-expressing Jurkat-NFAT-GFP cells cocultured with NALM6)
1 | B1 | RAJI (+) | 
2 | B2 | RAJI (+), NALM6 (+) | RAJI (+), NALM6 (+)
